Data on one substance can be found in paper PMC1182330.

Data set [1] has as its system RNase M5 WT;ribosomal protein L18 (Bacillus subtilis;Bacillus subtilis).
Data set [2] deals with RNase M5 WT (Bacillus subtilis).

The substance 5S rRNA precursor (pre-5S) displayed a binding signal (fold higher affinity than without L18) in data set [1] of 10. Further, the K half in data set [2] was found to be 2000 nM.
